The labels stand for the following.
B1: GpH7-A5/GpH7-B3 variant K326_15Y/GpL16-k0 (antibody, human IgG1, kappa)
heavy 1: not shown
heavy 2: not shown
light: DIVMTQSPLSLPVTPGEPASISCQASESLVHSNRNTYLHWYLQKPGQSPQLLIYKVSNRFSGVPDRFSGSGSGTDFTLKISRVEAEDVGVYYCSQNTHVPPTFGQGTKVEIERTVAAPSVFIFPPSDEQLKSGTASVVCLLNNFYPREAKVQWKVDNALQSGNSQESVTEQDSKDSTYSLSSTLTLSKADYEKHKVYACEVTHQGLSSPVTKSFNRGEC
notes: heterodimerized IgG1, mutation in one H chain; also called He Ab
B2: GpH7-A5/GpH7-B3 variant K334_10E/GpL16-k0 (antibody, human IgG1, kappa)
heavy 1: not shown
heavy 2: not shown
light: DIVMTQSPLSLPVTPGEPASISCQASESLVHSNRNTYLHWYLQKPGQSPQLLIYKVSNRFSGVPDRFSGSGSGTDFTLKISRVEAEDVGVYYCSQNTHVPPTFGQGTKVEIERTVAAPSVFIFPPSDEQLKSGTASVVCLLNNFYPREAKVQWKVDNALQSGNSQESVTEQDSKDSTYSLSSTLTLSKADYEKHKVYACEVTHQGLSSPVTKSFNRGEC
notes: as for B1
B3: GpH7-A5/GpH7-B3 variant P271_20W/GpL16-k0 (antibody, human IgG1, kappa)
heavy 1: not shown
heavy 2: not shown
light: DIVMTQSPLSLPVTPGEPASISCQASESLVHSNRNTYLHWYLQKPGQSPQLLIYKVSNRFSGVPDRFSGSGSGTDFTLKISRVEAEDVGVYYCSQNTHVPPTFGQGTKVEIERTVAAPSVFIFPPSDEQLKSGTASVVCLLNNFYPREAKVQWKVDNALQSGNSQESVTEQDSKDSTYSLSSTLTLSKADYEKHKVYACEVTHQGLSSPVTKSFNRGEC
notes: as for B1
B4: GpH7-A5/GpH7-B3 variant P271_07I/GpL16-k0 (antibody, human IgG1, kappa)
heavy 1: not shown
heavy 2: not shown
light: DIVMTQSPLSLPVTPGEPASISCQASESLVHSNRNTYLHWYLQKPGQSPQLLIYKVSNRFSGVPDRFSGSGSGTDFTLKISRVEAEDVGVYYCSQNTHVPPTFGQGTKVEIERTVAAPSVFIFPPSDEQLKSGTASVVCLLNNFYPREAKVQWKVDNALQSGNSQESVTEQDSKDSTYSLSSTLTLSKADYEKHKVYACEVTHQGLSSPVTKSFNRGEC
notes: as for B1
B5: GpH7-A5/GpH7-B3 variant K326_16H/GpL16-k0 (antibody, human IgG1, kappa)
heavy 1: not shown
heavy 2: not shown
light: DIVMTQSPLSLPVTPGEPASISCQASESLVHSNRNTYLHWYLQKPGQSPQLLIYKVSNRFSGVPDRFSGSGSGTDFTLKISRVEAEDVGVYYCSQNTHVPPTFGQGTKVEIERTVAAPSVFIFPPSDEQLKSGTASVVCLLNNFYPREAKVQWKVDNALQSGNSQESVTEQDSKDSTYSLSSTLTLSKADYEKHKVYACEVTHQGLSSPVTKSFNRGEC
notes: as for B1
B6: GpH7-A5/GpH7-B3 variant P271_13S/GpL16-k0 (antibody, human IgG1, kappa)
heavy 1: not shown
heavy 2: not shown
light: DIVMTQSPLSLPVTPGEPASISCQASESLVHSNRNTYLHWYLQKPGQSPQLLIYKVSNRFSGVPDRFSGSGSGTDFTLKISRVEAEDVGVYYCSQNTHVPPTFGQGTKVEIERTVAAPSVFIFPPSDEQLKSGTASVVCLLNNFYPREAKVQWKVDNALQSGNSQESVTEQDSKDSTYSLSSTLTLSKADYEKHKVYACEVTHQGLSSPVTKSFNRGEC
notes: as for B1
B7: GpH7-A5/GpH7-B3 variant Q295_03V/GpL16-k0 (antibody, human IgG1, kappa)
heavy 1: not shown
heavy 2: not shown
light: DIVMTQSPLSLPVTPGEPASISCQASESLVHSNRNTYLHWYLQKPGQSPQLLIYKVSNRFSGVPDRFSGSGSGTDFTLKISRVEAEDVGVYYCSQNTHVPPTFGQGTKVEIERTVAAPSVFIFPPSDEQLKSGTASVVCLLNNFYPREAKVQWKVDNALQSGNSQESVTEQDSKDSTYSLSSTLTLSKADYEKHKVYACEVTHQGLSSPVTKSFNRGEC
notes: as for B1
B8: GpH7-A5/GpH7-B3 variant P271_12R/GpL16-k0 (antibody, human IgG1, kappa)
heavy 1: not shown
heavy 2: not shown
light: DIVMTQSPLSLPVTPGEPASISCQASESLVHSNRNTYLHWYLQKPGQSPQLLIYKVSNRFSGVPDRFSGSGSGTDFTLKISRVEAEDVGVYYCSQNTHVPPTFGQGTKVEIERTVAAPSVFIFPPSDEQLKSGTASVVCLLNNFYPREAKVQWKVDNALQSGNSQESVTEQDSKDSTYSLSSTLTLSKADYEKHKVYACEVTHQGLSSPVTKSFNRGEC
notes: as for B1
B9: GpH7-A5/GpH7-B3 variant Q295_05P/GpL16-k0 (antibody, human IgG1, kappa)
heavy 1: not shown
heavy 2: not shown
light: DIVMTQSPLSLPVTPGEPASISCQASESLVHSNRNTYLHWYLQKPGQSPQLLIYKVSNRFSGVPDRFSGSGSGTDFTLKISRVEAEDVGVYYCSQNTHVPPTFGQGTKVEIERTVAAPSVFIFPPSDEQLKSGTASVVCLLNNFYPREAKVQWKVDNALQSGNSQESVTEQDSKDSTYSLSSTLTLSKADYEKHKVYACEVTHQGLSSPVTKSFNRGEC
notes: as for B1
B10: GpH7-A5/GpH7-B3 variant Q295_02A/GpL16-k0 (antibody, human IgG1, kappa)
heavy 1: not shown
heavy 2: not shown
light: DIVMTQSPLSLPVTPGEPASISCQASESLVHSNRNTYLHWYLQKPGQSPQLLIYKVSNRFSGVPDRFSGSGSGTDFTLKISRVEAEDVGVYYCSQNTHVPPTFGQGTKVEIERTVAAPSVFIFPPSDEQLKSGTASVVCLLNNFYPREAKVQWKVDNALQSGNSQESVTEQDSKDSTYSLSSTLTLSKADYEKHKVYACEVTHQGLSSPVTKSFNRGEC
notes: as for B1
B11: GpH7-A5/GpH7-B3 variant P271_03V/GpL16-k0 (antibody, human IgG1, kappa)
heavy 1: not shown
heavy 2: not shown
light: DIVMTQSPLSLPVTPGEPASISCQASESLVHSNRNTYLHWYLQKPGQSPQLLIYKVSNRFSGVPDRFSGSGSGTDFTLKISRVEAEDVGVYYCSQNTHVPPTFGQGTKVEIERTVAAPSVFIFPPSDEQLKSGTASVVCLLNNFYPREAKVQWKVDNALQSGNSQESVTEQDSKDSTYSLSSTLTLSKADYEKHKVYACEVTHQGLSSPVTKSFNRGEC
notes: as for B1
B12: GpH7-A5/GpH7-B3 variant Q295_04F/GpL16-k0 (antibody, human IgG1, kappa)
heavy 1: not shown
heavy 2: not shown
light: DIVMTQSPLSLPVTPGEPASISCQASESLVHSNRNTYLHWYLQKPGQSPQLLIYKVSNRFSGVPDRFSGSGSGTDFTLKISRVEAEDVGVYYCSQNTHVPPTFGQGTKVEIERTVAAPSVFIFPPSDEQLKSGTASVVCLLNNFYPREAKVQWKVDNALQSGNSQESVTEQDSKDSTYSLSSTLTLSKADYEKHKVYACEVTHQGLSSPVTKSFNRGEC
notes: as for B1
B13: GpH7-A5/GpH7-B3 variant Q295_07I/GpL16-k0 (antibody, human IgG1, kappa)
heavy 1: not shown
heavy 2: not shown
light: DIVMTQSPLSLPVTPGEPASISCQASESLVHSNRNTYLHWYLQKPGQSPQLLIYKVSNRFSGVPDRFSGSGSGTDFTLKISRVEAEDVGVYYCSQNTHVPPTFGQGTKVEIERTVAAPSVFIFPPSDEQLKSGTASVVCLLNNFYPREAKVQWKVDNALQSGNSQESVTEQDSKDSTYSLSSTLTLSKADYEKHKVYACEVTHQGLSSPVTKSFNRGEC
notes: as for B1
B14: GpH7-A5/GpH7-B3 variant P271_04F/GpL16-k0 (antibody, human IgG1, kappa)
heavy 1: not shown
heavy 2: not shown
light: DIVMTQSPLSLPVTPGEPASISCQASESLVHSNRNTYLHWYLQKPGQSPQLLIYKVSNRFSGVPDRFSGSGSGTDFTLKISRVEAEDVGVYYCSQNTHVPPTFGQGTKVEIERTVAAPSVFIFPPSDEQLKSGTASVVCLLNNFYPREAKVQWKVDNALQSGNSQESVTEQDSKDSTYSLSSTLTLSKADYEKHKVYACEVTHQGLSSPVTKSFNRGEC
notes: as for B1
B15: GpH7-A5/GpH7-B3 variant P271_06M/GpL16-k0 (antibody, human IgG1, kappa)
heavy 1: not shown
heavy 2: not shown
light: DIVMTQSPLSLPVTPGEPASISCQASESLVHSNRNTYLHWYLQKPGQSPQLLIYKVSNRFSGVPDRFSGSGSGTDFTLKISRVEAEDVGVYYCSQNTHVPPTFGQGTKVEIERTVAAPSVFIFPPSDEQLKSGTASVVCLLNNFYPREAKVQWKVDNALQSGNSQESVTEQDSKDSTYSLSSTLTLSKADYEKHKVYACEVTHQGLSSPVTKSFNRGEC
notes: as for B1
B16: GpH7-A5/GpH7-B3 variant P271_11K/GpL16-k0 (antibody, human IgG1, kappa)
heavy 1: not shown
heavy 2: not shown
light: DIVMTQSPLSLPVTPGEPASISCQASESLVHSNRNTYLHWYLQKPGQSPQLLIYKVSNRFSGVPDRFSGSGSGTDFTLKISRVEAEDVGVYYCSQNTHVPPTFGQGTKVEIERTVAAPSVFIFPPSDEQLKSGTASVVCLLNNFYPREAKVQWKVDNALQSGNSQESVTEQDSKDSTYSLSSTLTLSKADYEKHKVYACEVTHQGLSSPVTKSFNRGEC
notes: as for B1

These results are taken from patent US20150344570A1 (published 2015).

The target in this experiment is T1, FcγRIa (human, UniProt P12314 16-292).
T1 construct: extracellular domain; soluble extracellular domain with C-terminal His tag, expressed in FreeStyle293 cells; also called FcgRI; FcgRIa
T1 sequence (P12314 16-292): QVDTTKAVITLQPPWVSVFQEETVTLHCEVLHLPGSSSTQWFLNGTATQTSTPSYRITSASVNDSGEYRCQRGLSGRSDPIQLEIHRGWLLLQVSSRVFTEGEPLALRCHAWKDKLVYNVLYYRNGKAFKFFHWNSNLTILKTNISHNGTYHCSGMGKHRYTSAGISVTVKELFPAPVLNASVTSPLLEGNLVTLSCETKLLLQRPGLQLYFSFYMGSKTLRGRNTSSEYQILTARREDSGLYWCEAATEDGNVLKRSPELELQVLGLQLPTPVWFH
Description: SPR (Biacore), captured antibody, FcγRIa analyte; relative to HeCon Ab GpH7-A5/GpH7-B3/GpL16-k0 = 100. On the technique in general: In SPR one partner is held on a chip, and binding of the other changes the refractive index at the surface.
With B1, the He/Con_1a is 106 % of control.
With B2, the He/Con_1a is 110 % of control.
Consider B3, for which the He/Con_1a was 103 % of control.
The value for B4 was 102 % of control.
The value for B5 was 103 % of control.
As for B6, the He/Con_1a was 102 % of control.
With B7, the He/Con_1a is 104 % of control.
The value for B8 was 102 % of control; that for B9 was 103 % of control.
With B10, the He/Con_1a was 104 % of control.
The figure for B11 is 102 % of control.
The value for B12 was 102 % of control; that for B13 was 103 % of control.
The figure for B14 is 102 % of control.
Regarding B15, the He/Con_1a is 102 % of control.
The value for B16 was 103 % of control.
